Assay results as given in PMC7927982.

Assays:
[1] = target: T1, LARP1 La-Module (Homo sapiens, UniProt Q6PKG0-3 310-540); assay: EMSA
[2] = target: T1, LARP1 La-Module; assay: competition
[3] = target: T1, LARP1 La-Module; assay: EMSA; remark: listed apart in the source

| Binder | binding result [1] | also measured |
| --- | --- | --- |
| CUCUCUUCCACAGGAGGCCUACACGCCGCCGCUUGUGCUGCAGCC (ssRNA) [RPS18 5'UTR] | no binding |  |
| GUGGCGCCUCGGAGGCGUUCAGCUGCUUCAAG (ssRNA) [RPS6 5'UTR delTOP] | no binding |  |
| AAGAUUUUUUGAGUAACAAAU (ssRNA) [RPS6 3'UTR] | no binding |  |
| CCUCUUUUCCGUGGCGCCUCGGAGGCGUUCAGCUGCUUCAAG (ssRNA) [RPS6 5'UTR] | binds |  |
| GGGGGGGGGGGGGGGGGGG (ssRNA) [poly(G) 19-mer] |  | binding result [2]: binds |
| CCUUCUCCCCGGCGGUUAGUGCUGAGAGUGCGGAGUGUGUG (ssRNA) [PABPC1 42-mer] | no binding |  |
| AAAAAAAAAAAAAAAAAAAAAAAAA (ssRNA) [poly(A) 25-mer] |  | Kd [3]: 40 ± 1 nM |
| AAGCGGCUGCCGAAG (ssRNA) [RPL13A 5'UTR delTOP] | no binding |  |
| CCUUUUCCAAGCGGCUGCCGAAG (ssRNA) [RPL13A 5'UTR] | binds |  |
